# Results from the supplement of paper PMC6379048.
# What was measured:
# Test in all cases: Kd (EC50 corrected by depletion factor)
# NCL = NCL (UniProt P19338)
# Method in brief: (§1)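 HEK293-FT lysate (2.5 mg protein/well) was treated with free RNA oligos (0 nM to 30 μM) for 1 h at 4°C, then with the same oligos on NHS-Sepharose beads for 30 min at 4°C. Bound proteins were quantified by label-free LC-MS/MS relative to the control. EC50 came from a four-parameter log-logistic fit, and Kd is EC50 times a protein-dependent depletion factor.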
# PABPC4 = PABPC4 (UniProt Q13310)
# PABPC4, sequence (Q13310 whole entry): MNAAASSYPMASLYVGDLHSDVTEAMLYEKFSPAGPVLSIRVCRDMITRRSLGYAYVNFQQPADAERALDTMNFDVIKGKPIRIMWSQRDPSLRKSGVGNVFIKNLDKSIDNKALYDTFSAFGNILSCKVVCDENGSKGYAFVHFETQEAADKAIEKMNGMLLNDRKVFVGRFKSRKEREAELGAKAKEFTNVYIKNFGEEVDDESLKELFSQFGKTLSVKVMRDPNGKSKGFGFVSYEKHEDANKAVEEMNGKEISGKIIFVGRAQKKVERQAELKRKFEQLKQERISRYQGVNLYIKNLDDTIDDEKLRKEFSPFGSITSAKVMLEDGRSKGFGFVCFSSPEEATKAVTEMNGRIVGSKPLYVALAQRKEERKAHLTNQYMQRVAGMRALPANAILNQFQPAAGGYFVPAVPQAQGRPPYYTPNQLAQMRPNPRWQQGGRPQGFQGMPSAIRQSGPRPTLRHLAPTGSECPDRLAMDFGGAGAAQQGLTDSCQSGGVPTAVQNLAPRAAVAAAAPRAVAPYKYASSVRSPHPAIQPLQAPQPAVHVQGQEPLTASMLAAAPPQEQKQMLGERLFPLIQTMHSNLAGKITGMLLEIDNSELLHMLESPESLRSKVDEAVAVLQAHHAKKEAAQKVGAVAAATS
# Method in brief: as §1
# MSI1 = MSI1 (UniProt O43347)
# MSI1, sequence (O43347 whole entry): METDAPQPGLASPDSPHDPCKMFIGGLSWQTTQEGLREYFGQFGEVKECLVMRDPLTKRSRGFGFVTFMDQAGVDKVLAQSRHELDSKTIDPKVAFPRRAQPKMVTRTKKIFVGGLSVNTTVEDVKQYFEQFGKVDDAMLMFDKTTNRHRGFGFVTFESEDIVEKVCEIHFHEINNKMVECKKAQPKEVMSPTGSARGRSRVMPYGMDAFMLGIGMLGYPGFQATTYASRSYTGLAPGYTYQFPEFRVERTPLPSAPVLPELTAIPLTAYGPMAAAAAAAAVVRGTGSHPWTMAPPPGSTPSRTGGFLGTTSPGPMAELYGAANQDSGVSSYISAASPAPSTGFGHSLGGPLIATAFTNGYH
# Method in brief: as §1
# SYMPK = target: T1, SYMPK (UniProt Q92797)
# T1 sequence: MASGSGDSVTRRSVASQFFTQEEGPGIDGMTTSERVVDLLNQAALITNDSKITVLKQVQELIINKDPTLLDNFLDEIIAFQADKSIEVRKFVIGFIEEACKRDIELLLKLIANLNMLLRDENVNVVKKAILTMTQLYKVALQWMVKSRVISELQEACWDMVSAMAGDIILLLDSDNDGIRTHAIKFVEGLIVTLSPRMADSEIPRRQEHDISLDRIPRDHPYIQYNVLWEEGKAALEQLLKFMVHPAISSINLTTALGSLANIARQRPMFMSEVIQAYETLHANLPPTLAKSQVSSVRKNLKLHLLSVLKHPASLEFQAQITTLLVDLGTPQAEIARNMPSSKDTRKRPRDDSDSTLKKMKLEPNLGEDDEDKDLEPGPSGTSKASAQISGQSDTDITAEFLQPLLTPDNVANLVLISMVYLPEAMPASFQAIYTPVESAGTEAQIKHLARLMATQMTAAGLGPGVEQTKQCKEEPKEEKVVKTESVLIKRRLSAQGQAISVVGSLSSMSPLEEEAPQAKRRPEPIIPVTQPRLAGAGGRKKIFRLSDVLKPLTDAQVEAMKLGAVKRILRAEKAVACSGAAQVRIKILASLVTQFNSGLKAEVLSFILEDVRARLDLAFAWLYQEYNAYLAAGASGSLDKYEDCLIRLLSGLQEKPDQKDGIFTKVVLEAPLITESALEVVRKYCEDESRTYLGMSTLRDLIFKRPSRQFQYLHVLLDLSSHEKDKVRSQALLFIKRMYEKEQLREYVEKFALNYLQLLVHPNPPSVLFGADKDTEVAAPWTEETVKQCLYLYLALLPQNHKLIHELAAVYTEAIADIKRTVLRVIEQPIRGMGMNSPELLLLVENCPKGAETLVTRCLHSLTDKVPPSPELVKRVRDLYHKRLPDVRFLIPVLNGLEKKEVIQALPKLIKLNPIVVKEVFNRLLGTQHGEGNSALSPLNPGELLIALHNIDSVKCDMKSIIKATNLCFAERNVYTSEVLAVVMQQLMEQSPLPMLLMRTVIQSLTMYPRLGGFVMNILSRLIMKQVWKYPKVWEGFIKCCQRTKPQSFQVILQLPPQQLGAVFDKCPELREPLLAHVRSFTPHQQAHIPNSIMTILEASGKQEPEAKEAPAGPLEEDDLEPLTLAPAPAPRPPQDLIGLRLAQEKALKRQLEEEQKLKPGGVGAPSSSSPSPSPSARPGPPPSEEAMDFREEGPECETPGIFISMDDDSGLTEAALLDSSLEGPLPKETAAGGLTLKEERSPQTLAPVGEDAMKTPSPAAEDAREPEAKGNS
# Method in brief: as §1
# XAB2 = target: T2, XAB2 (UniProt Q9HCS7)
# T2 sequence: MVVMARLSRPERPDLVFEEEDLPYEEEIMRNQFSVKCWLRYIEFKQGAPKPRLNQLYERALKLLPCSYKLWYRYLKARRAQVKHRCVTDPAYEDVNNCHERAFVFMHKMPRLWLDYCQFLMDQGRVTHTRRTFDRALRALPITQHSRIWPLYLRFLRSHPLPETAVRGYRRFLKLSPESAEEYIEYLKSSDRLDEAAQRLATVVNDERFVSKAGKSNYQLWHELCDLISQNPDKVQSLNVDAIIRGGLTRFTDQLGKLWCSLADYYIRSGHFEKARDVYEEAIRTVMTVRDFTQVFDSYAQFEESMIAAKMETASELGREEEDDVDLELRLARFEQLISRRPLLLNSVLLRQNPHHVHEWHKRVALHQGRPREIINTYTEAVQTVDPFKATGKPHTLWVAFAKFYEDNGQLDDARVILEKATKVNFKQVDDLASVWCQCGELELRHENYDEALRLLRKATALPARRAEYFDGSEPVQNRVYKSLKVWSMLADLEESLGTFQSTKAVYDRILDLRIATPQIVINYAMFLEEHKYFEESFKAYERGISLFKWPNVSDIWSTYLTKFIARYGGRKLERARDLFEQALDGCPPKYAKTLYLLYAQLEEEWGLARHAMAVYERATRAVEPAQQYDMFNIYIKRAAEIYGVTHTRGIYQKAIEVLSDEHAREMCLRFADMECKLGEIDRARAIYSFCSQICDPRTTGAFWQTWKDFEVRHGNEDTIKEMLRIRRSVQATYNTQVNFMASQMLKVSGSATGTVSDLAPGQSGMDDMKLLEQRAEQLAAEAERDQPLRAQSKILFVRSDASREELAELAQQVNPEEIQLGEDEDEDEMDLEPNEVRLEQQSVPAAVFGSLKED
# Method in brief: as §1
# NCL, sequence (P19338 whole entry): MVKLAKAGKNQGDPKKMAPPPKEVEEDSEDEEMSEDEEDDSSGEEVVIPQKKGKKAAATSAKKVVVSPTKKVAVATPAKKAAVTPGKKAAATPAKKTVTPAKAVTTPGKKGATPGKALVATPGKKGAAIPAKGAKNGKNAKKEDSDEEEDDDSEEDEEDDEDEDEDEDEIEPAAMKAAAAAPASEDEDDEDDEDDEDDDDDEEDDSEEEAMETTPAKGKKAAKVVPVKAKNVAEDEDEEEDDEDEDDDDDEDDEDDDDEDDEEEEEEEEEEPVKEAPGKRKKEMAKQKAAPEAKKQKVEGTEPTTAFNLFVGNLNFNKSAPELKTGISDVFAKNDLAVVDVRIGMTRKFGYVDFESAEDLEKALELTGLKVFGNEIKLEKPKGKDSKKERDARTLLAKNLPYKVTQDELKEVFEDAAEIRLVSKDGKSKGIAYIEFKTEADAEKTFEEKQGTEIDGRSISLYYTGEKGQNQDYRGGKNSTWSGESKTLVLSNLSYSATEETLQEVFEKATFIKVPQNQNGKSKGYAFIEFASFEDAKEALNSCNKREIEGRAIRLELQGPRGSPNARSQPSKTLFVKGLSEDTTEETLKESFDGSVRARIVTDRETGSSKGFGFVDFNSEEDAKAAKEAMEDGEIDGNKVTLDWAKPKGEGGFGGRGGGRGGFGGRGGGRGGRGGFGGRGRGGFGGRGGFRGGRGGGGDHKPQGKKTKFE
Sequence,Kd (NCL) [nM],Kd (PABPC4) [nM],Kd (MSI1) [nM],Kd (SYMPK) [nM],Kd (XAB2) [nM]
UAUUUAU,1770,7840,373,254,286
CUGUCCU,86.8,–,–,–,–
AAUAAA,–,1530,3110,12.7,322
